From patent US20250026842A1

Molecular target: pre-anti-drug antibodies (pre-ADAs) in individual serum samples taken from healthy humans
Test: ELISA, coated sdAb, 40 healthy donor sera (1:5), anti-human lambda chain-HRP, OD415

B1: P2-1 (protein)
VH: HHHHHHGGGGSEVQLLESGGGLVQPGGSLRLSCAASGFTFAHETMVWVRQAPGKGLEWVSHIPPDGQDPFYADSVKGRFTISRDNSKNTLYLQMNSLRAEDTAVYHCALLPKRGPWFDYWGQGTLVTVSS
For B1, the percent of serum samples with detectable sdAb-reactive pre-ADAs was 57.5%.

B2: P2-2 (protein)
VH: HHHHHHGGGGSEVQLLESGGGLVQPGGSLRLSCAASGFTFAHETMVWVRQAPGKGLEWVSHIPPDGQDPFYADSVKGRFTISRDNSKNTLYLQMNSLRAEDTAVYHCALLPKRGPWFDYWGQGTLVTVSSA
Work on B2 yielded a percent of serum samples with detectable sdAb-reactive pre-ADAs of 12.5%.
